Experiment [1] has as its target T1, Cos cells transfected with IL-17R (Homo sapiens, UniProt Q96F46).
T1 construct: expressed in transfected cells; host or cells: Cos cells
Put plainly: Binding to Cos cells transfected with IL-17R. Type of experiment: cell-based. The note with it: data not shown.

The target in experiment [2] is T2, PRO5801 (human IL-17RH1 receptor) as tested in the receptor/ligand screen (human, UniProt Q9NRM6 18-292, limits assumed).
T2 sequence (looked up): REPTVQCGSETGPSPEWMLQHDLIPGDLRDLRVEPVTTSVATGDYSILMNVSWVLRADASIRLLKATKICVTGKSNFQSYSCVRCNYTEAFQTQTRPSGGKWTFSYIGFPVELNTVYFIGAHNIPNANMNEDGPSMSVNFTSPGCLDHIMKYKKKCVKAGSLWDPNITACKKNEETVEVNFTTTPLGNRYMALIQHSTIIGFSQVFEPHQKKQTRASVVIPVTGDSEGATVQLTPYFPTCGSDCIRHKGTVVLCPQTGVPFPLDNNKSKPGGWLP
Briefly: receptor/ligand screen, FIG. 14. An excerpt: A PRO polypeptide of the present invention suspected of being a ligand for a receptor is expressed as a fusion protein containing the Fc domain of human IgG (an immunoadhesin). Receptor-ligand binding is detected by allowing interaction of the immunoadhesin polypeptide with cells (e.g. Cos cells) expressing candidate PRO polypeptide receptors and visualization of bound immunoadhesin with fluorescent reagents directed toward the Fc fusion domain and examination by microscope. Cells expressing candidate receptors are produced by transient transfection, in parallel, of defined subsets of a library of cDNA expression vectors encoding PRO polypeptides that may function as receptor molecules. Cells are then incubated for 1 hour in the presence of the PRO polypeptide immunoadhesin being tested for possible receptor binding. The cells are then washed and fixed with paraformaldehyde. The cells are then incubated with fluorescent conjugated antibody directed against the Fc portion of the PRO polypeptide immunoadhesin (e.g. FITC conjugated goat anti-human-Fc antibody). The cells are then washed again and examined by microscope. A positive interaction is judged by the presence of fluorescent labeling of cells transfected with cDNA encoding a particular PRO polypeptide receptor or pool of receptors and an absence of similar fluorescent labeling of similarly prepared cells that have been transfected with other cDNA or pools of cDNA. If a defined pool of cDNA expression vectors is judged to be positive for interaction with a PRO polypeptide immunoadhesin, the individual cDNA species that comprise the pool are tested individually (the pool is “broken down”) to determine the specific cDNA that encodes a receptor able to interact with the PRO polypeptide immunoadhesin.
In another embodiment of this assay, an epitope-tagged potential ligand PRO polypeptide (e.g., 8 histidine “His” tag) is allowed to interact with a panel of potential receptor PRO polypeptide molecules that have been expressed as fusions with the Fc domain of human IgG (immunoadhesins). Following a 1 hour co-incubation with the epitope tagged PRO polypeptide, the candidate receptors are each immunoprecipitated with protein A beads and the beads are washed. Potential ligand interaction is determined by Western blot analysis of the immunoprecipitated complexes with antibody directed towards the epitope tag.

Experiment [3] deals with T3, PRO5801 (human IL-17RH1 receptor) (Homo sapiens, UniProt Q9NRM6).
T3 sequence (Q9NRM6 18-502): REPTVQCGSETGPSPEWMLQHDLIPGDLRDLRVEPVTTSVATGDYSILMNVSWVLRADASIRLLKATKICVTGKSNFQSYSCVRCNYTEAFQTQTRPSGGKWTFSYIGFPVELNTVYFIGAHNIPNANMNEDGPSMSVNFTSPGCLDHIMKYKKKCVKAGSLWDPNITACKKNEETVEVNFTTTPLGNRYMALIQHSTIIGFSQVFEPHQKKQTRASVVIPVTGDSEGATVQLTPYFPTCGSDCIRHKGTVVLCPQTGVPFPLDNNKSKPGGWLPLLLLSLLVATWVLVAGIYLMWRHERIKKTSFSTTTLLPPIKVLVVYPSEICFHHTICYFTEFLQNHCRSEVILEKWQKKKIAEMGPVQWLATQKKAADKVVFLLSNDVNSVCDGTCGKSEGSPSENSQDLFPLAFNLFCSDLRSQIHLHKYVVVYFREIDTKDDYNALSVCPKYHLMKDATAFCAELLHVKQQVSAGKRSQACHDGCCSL
Put plainly: Receptor/ligand interaction screening assay (immunoadhesin). In kind it is binding.

B1: IL-17F: human IL-17F ligand, SEQ ID NO:4 (protein, listed as Homo sapiens)
chain: MTVKTLHGPAMVKYLLLSILGLAFLSEAAARKIPKVGHTFFQKPESCPPVPGGSMKLDIGIINENQRVSMSRNIESRSTSPWNYTVTWDPNRYPSEVVQAQCRNLGCINAQGKEDISMNSVPIQQETLVVRRKHQGCSVSFQLEKVLVTVGCTCVTPVIHHVQ
Regarding B1, the “binding to Cos cells transfected with IL-17R” value in experiment [1] was “enhanced binding”.

B2: PRO21175 (IL-17D ligand) (ligand, UniProt Q8TAD2 16-202, looked up)
chain: AGAPRAGRRPARPRGCADRPEELLEQLYGRLAAGVLSAFHHTLQLGPREQARNASCPAGGRPADRRFRPPTNLRSVSPWAYRISYDPARYPRYLPEAYCLCRGCLTGLFGEEDVRFRSAPVYMPTVVLRRTPACAGGRSVYTEAYVTIPVGCTCVPEPEKDADSINSSIDKQGAKLLLGPNDAPAGP
As to B2, the binding result in experiment [2] is recorded as “no binding”. In experiment [3], the “binding to IL-17RH1 receptor (PRO5801)” value is “do not interact”.

B3: PRO1122 (IL-17C ligand) (ligand, UniProt Q9P0M4 19-197, looked up)
chain: HHDPSLRGHPHSHGTPHCYSAEELPLGQAPPHLLARGAKWGQALPVALVSSLEAASHRGRHERPSATTQCPVLRPEEVLEADTHQRSISPWRYRVDTDEDRYPQKLAFAECLCRGCIDARTGRETAALNSVRLLQSLLVLRRRPCSRDGSGLPTPGAFAFHTEFIHVPVGCTCVLPRSV
With B3, the binding result in experiment [2] was “no binding”. For the same molecule, in experiment [3], the “binding to IL-17RH1 receptor (PRO5801)” value is recorded as “do not interact”.

(Values after patent publication US20070160576A1, “IL-17A/F heterologous polypeptides and therapeutic uses thereof” (Genentech, Inc., priority 2001, published 2007).)
